Test results reported in patent US20260049138A1 (Chugai, published 2026).

Target: T1, CD3ε homodimer protein (human, UniProt P07766 23-126, limits assumed, sulfo-tag or biotin label in the ECL assays; amine-coupled to the chip in SPR)
T1 construct: also called human CD3ε homodimer protein; CD3 (CD3ε)
Experiment: SPR Biacore T200; CD3ε homodimer on CM4 chip;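 further: Single-residue variant antibodies injected as analyte over CD3ε homodimer immobilized by amine coupling, run at 25 °C in HBS-EP+ buffer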

T1 sequence (P07766 23-126 limits assumed): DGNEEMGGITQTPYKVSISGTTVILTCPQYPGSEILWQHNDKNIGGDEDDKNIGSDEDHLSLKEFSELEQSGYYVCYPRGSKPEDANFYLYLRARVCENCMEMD

Binder | ratio of amounts bound Z=Y/X (altered form / CE115HA000)
CE115HA000 V100cD one-arm antibody (antibody, human IgG1, kappa, L234A L235A, N297A, name in Kabat numbering) heavy: QVQLVESGGGVVQPGRSLRLSCAASGFTFSNAWMHWVRQAPGKGLEWVAQIKAKSNNYATYYAESVKGRFTISRDDSKNSLYLQMNSLKTEDTAVYYCRYVHYGAYYGDDAWGQGTTVTVSSASTKGPSVFPLAPSSKSTSGGTAALGCLVKDYFPEPVTVSWNSGALTSGVHTFPAVLQSSGLYSLSSVVTVPSSSLGTQTYICNVNHKPSNTKVDKKVEPKSCDKTHTCPPCPAPEAAGGPSVFLFPPKPKDTLMISRTPEVTCVVVDVSHEDPEVKFNWYVDGVEVHNAKTKPREEQYASTYRVVSVLTVLHQDWLNGKEYKCKVSNKALPAPIEKTISKAKGQPREPQVYTLPPSRCELTKNQVSLSCAVKGFYPSDIAVEWESNGQPENNYKTTPPVLDSDGSFFLVSKLTVDKSRWQQGNVFSCSVMHEALHNHYTQKSLSLSPDYKDDDDK EPKSSDKTHTCPPCPAPELLGGPSVFLFPPKPKDTLMISRTPEVTCVVVDVSHEDPEVKFNWYVDGVEVHNAKTKPREEQYNSTYRVVSVLTVLHQDWLNGKEYKCKVSNKALPAPIEKTISKAKGQPREPQVCTLPPSRDELTKNQVSLWCLVKGFYPSDIAVEWESNGQPENNYKTTPPVLDSDGSFFLYSKLTVDKSRWQQGNVFSCSVMHEALHNRYTQKSLSLSP light: DIVMTQSPLSLPVTPGEPASISCRSSQSLVHSNRNTYLHWYQQKPGQAPRLLIYKVSNRFSGVPDRFSGSGSGTDFTLKISRVEAEDVGVYYCGQGTQVPYTFGQGTKLEIKRTVAAPSVFIFPPSDEQLKSGTASVVCLLNNFYPREAKVQWKVDNALQSGNSQESVTEQDSKDSTYSLSSTLTLSKADYEKHKVYACEVTHQGLSSPVTKSFNRGEC | 0.44
CE115HA000 V100cP one-arm antibody (antibody, human IgG1, kappa, L234A L235A, N297A, name in Kabat numbering) heavy: QVQLVESGGGVVQPGRSLRLSCAASGFTFSNAWMHWVRQAPGKGLEWVAQIKAKSNNYATYYAESVKGRFTISRDDSKNSLYLQMNSLKTEDTAVYYCRYVHYGAYYGPDAWGQGTTVTVSSASTKGPSVFPLAPSSKSTSGGTAALGCLVKDYFPEPVTVSWNSGALTSGVHTFPAVLQSSGLYSLSSVVTVPSSSLGTQTYICNVNHKPSNTKVDKKVEPKSCDKTHTCPPCPAPEAAGGPSVFLFPPKPKDTLMISRTPEVTCVVVDVSHEDPEVKFNWYVDGVEVHNAKTKPREEQYASTYRVVSVLTVLHQDWLNGKEYKCKVSNKALPAPIEKTISKAKGQPREPQVYTLPPSRCELTKNQVSLSCAVKGFYPSDIAVEWESNGQPENNYKTTPPVLDSDGSFFLVSKLTVDKSRWQQGNVFSCSVMHEALHNHYTQKSLSLSPDYKDDDDK EPKSSDKTHTCPPCPAPELLGGPSVFLFPPKPKDTLMISRTPEVTCVVVDVSHEDPEVKFNWYVDGVEVHNAKTKPREEQYNSTYRVVSVLTVLHQDWLNGKEYKCKVSNKALPAPIEKTISKAKGQPREPQVCTLPPSRDELTKNQVSLWCLVKGFYPSDIAVEWESNGQPENNYKTTPPVLDSDGSFFLYSKLTVDKSRWQQGNVFSCSVMHEALHNRYTQKSLSLSP light: DIVMTQSPLSLPVTPGEPASISCRSSQSLVHSNRNTYLHWYQQKPGQAPRLLIYKVSNRFSGVPDRFSGSGSGTDFTLKISRVEAEDVGVYYCGQGTQVPYTFGQGTKLEIKRTVAAPSVFIFPPSDEQLKSGTASVVCLLNNFYPREAKVQWKVDNALQSGNSQESVTEQDSKDSTYSLSSTLTLSKADYEKHKVYACEVTHQGLSSPVTKSFNRGEC | 0.2
CE115HA000 W33A one-arm antibody (antibody, human IgG1, kappa, L234A L235A, N297A, name in Kabat numbering) heavy: QVQLVESGGGVVQPGRSLRLSCAASGFTFSNAAMHWVRQAPGKGLEWVAQIKAKSNNYATYYAESVKGRFTISRDDSKNSLYLQMNSLKTEDTAVYYCRYVHYGAYYGVDAWGQGTTVTVSSASTKGPSVFPLAPSSKSTSGGTAALGCLVKDYFPEPVTVSWNSGALTSGVHTFPAVLQSSGLYSLSSVVTVPSSSLGTQTYICNVNHKPSNTKVDKKVEPKSCDKTHTCPPCPAPEAAGGPSVFLFPPKPKDTLMISRTPEVTCVVVDVSHEDPEVKFNWYVDGVEVHNAKTKPREEQYASTYRVVSVLTVLHQDWLNGKEYKCKVSNKALPAPIEKTISKAKGQPREPQVYTLPPSRCELTKNQVSLSCAVKGFYPSDIAVEWESNGQPENNYKTTPPVLDSDGSFFLVSKLTVDKSRWQQGNVFSCSVMHEALHNHYTQKSLSLSPDYKDDDDK EPKSSDKTHTCPPCPAPELLGGPSVFLFPPKPKDTLMISRTPEVTCVVVDVSHEDPEVKFNWYVDGVEVHNAKTKPREEQYNSTYRVVSVLTVLHQDWLNGKEYKCKVSNKALPAPIEKTISKAKGQPREPQVCTLPPSRDELTKNQVSLWCLVKGFYPSDIAVEWESNGQPENNYKTTPPVLDSDGSFFLYSKLTVDKSRWQQGNVFSCSVMHEALHNRYTQKSLSLSP light: DIVMTQSPLSLPVTPGEPASISCRSSQSLVHSNRNTYLHWYQQKPGQAPRLLIYKVSNRFSGVPDRFSGSGSGTDFTLKISRVEAEDVGVYYCGQGTQVPYTFGQGTKLEIKRTVAAPSVFIFPPSDEQLKSGTASVVCLLNNFYPREAKVQWKVDNALQSGNSQESVTEQDSKDSTYSLSSTLTLSKADYEKHKVYACEVTHQGLSSPVTKSFNRGEC | 0.1
CE115HA000 V100cE one-arm antibody (antibody, human IgG1, kappa, L234A L235A, N297A, name in Kabat numbering) heavy: QVQLVESGGGVVQPGRSLRLSCAASGFTFSNAWMHWVRQAPGKGLEWVAQIKAKSNNYATYYAESVKGRFTISRDDSKNSLYLQMNSLKTEDTAVYYCRYVHYGAYYGEDAWGQGTTVTVSSASTKGPSVFPLAPSSKSTSGGTAALGCLVKDYFPEPVTVSWNSGALTSGVHTFPAVLQSSGLYSLSSVVTVPSSSLGTQTYICNVNHKPSNTKVDKKVEPKSCDKTHTCPPCPAPEAAGGPSVFLFPPKPKDTLMISRTPEVTCVVVDVSHEDPEVKFNWYVDGVEVHNAKTKPREEQYASTYRVVSVLTVLHQDWLNGKEYKCKVSNKALPAPIEKTISKAKGQPREPQVYTLPPSRCELTKNQVSLSCAVKGFYPSDIAVEWESNGQPENNYKTTPPVLDSDGSFFLVSKLTVDKSRWQQGNVFSCSVMHEALHNHYTQKSLSLSPDYKDDDDK EPKSSDKTHTCPPCPAPELLGGPSVFLFPPKPKDTLMISRTPEVTCVVVDVSHEDPEVKFNWYVDGVEVHNAKTKPREEQYNSTYRVVSVLTVLHQDWLNGKEYKCKVSNKALPAPIEKTISKAKGQPREPQVCTLPPSRDELTKNQVSLWCLVKGFYPSDIAVEWESNGQPENNYKTTPPVLDSDGSFFLYSKLTVDKSRWQQGNVFSCSVMHEALHNRYTQKSLSLSP light: DIVMTQSPLSLPVTPGEPASISCRSSQSLVHSNRNTYLHWYQQKPGQAPRLLIYKVSNRFSGVPDRFSGSGSGTDFTLKISRVEAEDVGVYYCGQGTQVPYTFGQGTKLEIKRTVAAPSVFIFPPSDEQLKSGTASVVCLLNNFYPREAKVQWKVDNALQSGNSQESVTEQDSKDSTYSLSSTLTLSKADYEKHKVYACEVTHQGLSSPVTKSFNRGEC | 0.46

Other lines, results leading:

ratio of amounts bound Z=Y/X (altered form / CE115HA000) | Binder
0.1 | CE115HA000 W33D one-arm antibody (antibody, human IgG1, kappa, L234A L235A, N297A, name in Kabat numbering) heavy: QVQLVESGGGVVQPGRSLRLSCAASGFTFSNADMHWVRQAPGKGLEWVAQIKAKSNNYATYYAESVKGRFTISRDDSKNSLYLQMNSLKTEDTAVYYCRYVHYGAYYGVDAWGQGTTVTVSSASTKGPSVFPLAPSSKSTSGGTAALGCLVKDYFPEPVTVSWNSGALTSGVHTFPAVLQSSGLYSLSSVVTVPSSSLGTQTYICNVNHKPSNTKVDKKVEPKSCDKTHTCPPCPAPEAAGGPSVFLFPPKPKDTLMISRTPEVTCVVVDVSHEDPEVKFNWYVDGVEVHNAKTKPREEQYASTYRVVSVLTVLHQDWLNGKEYKCKVSNKALPAPIEKTISKAKGQPREPQVYTLPPSRCELTKNQVSLSCAVKGFYPSDIAVEWESNGQPENNYKTTPPVLDSDGSFFLVSKLTVDKSRWQQGNVFSCSVMHEALHNHYTQKSLSLSPDYKDDDDK EPKSSDKTHTCPPCPAPELLGGPSVFLFPPKPKDTLMISRTPEVTCVVVDVSHEDPEVKFNWYVDGVEVHNAKTKPREEQYNSTYRVVSVLTVLHQDWLNGKEYKCKVSNKALPAPIEKTISKAKGQPREPQVCTLPPSRDELTKNQVSLWCLVKGFYPSDIAVEWESNGQPENNYKTTPPVLDSDGSFFLYSKLTVDKSRWQQGNVFSCSVMHEALHNRYTQKSLSLSP light: DIVMTQSPLSLPVTPGEPASISCRSSQSLVHSNRNTYLHWYQQKPGQAPRLLIYKVSNRFSGVPDRFSGSGSGTDFTLKISRVEAEDVGVYYCGQGTQVPYTFGQGTKLEIKRTVAAPSVFIFPPSDEQLKSGTASVVCLLNNFYPREAKVQWKVDNALQSGNSQESVTEQDSKDSTYSLSSTLTLSKADYEKHKVYACEVTHQGLSSPVTKSFNRGEC
0.65 | CE115HA000 W33F one-arm antibody (antibody, human IgG1, kappa, L234A L235A, N297A, name in Kabat numbering) heavy: QVQLVESGGGVVQPGRSLRLSCAASGFTFSNAFMHWVRQAPGKGLEWVAQIKAKSNNYATYYAESVKGRFTISRDDSKNSLYLQMNSLKTEDTAVYYCRYVHYGAYYGVDAWGQGTTVTVSSASTKGPSVFPLAPSSKSTSGGTAALGCLVKDYFPEPVTVSWNSGALTSGVHTFPAVLQSSGLYSLSSVVTVPSSSLGTQTYICNVNHKPSNTKVDKKVEPKSCDKTHTCPPCPAPEAAGGPSVFLFPPKPKDTLMISRTPEVTCVVVDVSHEDPEVKFNWYVDGVEVHNAKTKPREEQYASTYRVVSVLTVLHQDWLNGKEYKCKVSNKALPAPIEKTISKAKGQPREPQVYTLPPSRCELTKNQVSLSCAVKGFYPSDIAVEWESNGQPENNYKTTPPVLDSDGSFFLVSKLTVDKSRWQQGNVFSCSVMHEALHNHYTQKSLSLSPDYKDDDDK EPKSSDKTHTCPPCPAPELLGGPSVFLFPPKPKDTLMISRTPEVTCVVVDVSHEDPEVKFNWYVDGVEVHNAKTKPREEQYNSTYRVVSVLTVLHQDWLNGKEYKCKVSNKALPAPIEKTISKAKGQPREPQVCTLPPSRDELTKNQVSLWCLVKGFYPSDIAVEWESNGQPENNYKTTPPVLDSDGSFFLYSKLTVDKSRWQQGNVFSCSVMHEALHNRYTQKSLSLSP light: DIVMTQSPLSLPVTPGEPASISCRSSQSLVHSNRNTYLHWYQQKPGQAPRLLIYKVSNRFSGVPDRFSGSGSGTDFTLKISRVEAEDVGVYYCGQGTQVPYTFGQGTKLEIKRTVAAPSVFIFPPSDEQLKSGTASVVCLLNNFYPREAKVQWKVDNALQSGNSQESVTEQDSKDSTYSLSSTLTLSKADYEKHKVYACEVTHQGLSSPVTKSFNRGEC
